Data taken from paper doi:10.1101/2024.11.14.623549 (bioRxiv, 2024).
Blank lines part the entries; values can stand above or below the binder they belong to.

B3: Clathrin Light Chain (CLC), residues 1-233 (natural protein, Saccharomyces cerevisiae, UniProt P17891 1-233, looked up)
chain: MSEKFPPLEDQNIDFTPNDKKDDDTDFLKREAEILGDEFKTEQDDILETEASPAKDDDEIRDFEEQFPDINSANGAVSSDQNGSATVSSGNDNGEADDDFSTFEGANQSTESVKEDRSEVVDQWKQRRAVEIHEKDLKDEELKKELQDEAIKHIDDFYDSYNKKKEQQLEDAAKEAEAFLKKRDEFFGQDNTTWDRALQLINQDDADIIGGRDRSKLKEILLRLKGNAKAPGA
modifications: RED-NHS dye label
B4: Sla1 SH3_3 domain (Sla1 residues 355-414) (domain or fragment, Saccharomyces cerevisiae)
chain: GAMAKKRGIVQYDFMAESQDELTIKSGDKVYILDDKKSKDWWMCQLVDSGKSGLVPAQFIEPVR
modifications: also: RED-NHS dye label, site not given here
B5: Sla2ccRTH (Sla2 residues 351-968) (domain or fragment, Saccharomyces cerevisiae, UniProt P33338 351-968, looked up)
chain: ATAQMQPDFWANQQAQFANEQNRLEQERVQQLQQQQAQQELFQQQLQKAQQDMMNMQLQQQNQHQNDLIALTNQYEKDQALLQQYDQRVQQLESEITTMDSTASKQLANKDEQLTALQDQLDVWERKYESLAKLYSQLRQEHLNLLPRFKKLQLKVNSAQESIQKKEQLEHKLKQKDLQMAELVKDRDRARLELERSINNAEADSAAATAAAETMTQDKMNPILDAILESGINTIQESVYNLDSPLSWSGPLTPPTFLLSLLESTSENATEFATSFNNLIVDGLAHGDQTEVIHCVSDFSTSMATLVTNSKAYAVTTLPQEQSDQILTLVKRCAREAQYFFEDLMSENLNQVGDEEKTDIVINANVDMQEKLQELSLAIEPLLNIQSVKSNKETNPHSELVATADKIVKSSEHLRVDVPKPLLSLALMIIDAVVALVKAAIQCQNEIATTTSIPLNQFYLKNSRWTEGLISAAKAVAGATNVLITTASKLITSEDNENTSPEQFIVASKEVAASTIQLVAASRVKTSIHSKAQDKLEHCSKDVTDACRSLGNHVMGMIEDDHSTSQQQQPLDFTSEHTLKTAEMEQQVEILKLEQSLSNARKRLGEIRRHAYYNQDDD

What was measured:
[1] = target: B3; assay: MST
[2] = target: B5; assay: mass photometry
[3] = target: T1, Sla2cc ΔSite1 (Δ515-546) (Saccharomyces cerevisiae, UniProt P33338 296-767, Δ515-546); assay: MST
T1 sequence (looked up): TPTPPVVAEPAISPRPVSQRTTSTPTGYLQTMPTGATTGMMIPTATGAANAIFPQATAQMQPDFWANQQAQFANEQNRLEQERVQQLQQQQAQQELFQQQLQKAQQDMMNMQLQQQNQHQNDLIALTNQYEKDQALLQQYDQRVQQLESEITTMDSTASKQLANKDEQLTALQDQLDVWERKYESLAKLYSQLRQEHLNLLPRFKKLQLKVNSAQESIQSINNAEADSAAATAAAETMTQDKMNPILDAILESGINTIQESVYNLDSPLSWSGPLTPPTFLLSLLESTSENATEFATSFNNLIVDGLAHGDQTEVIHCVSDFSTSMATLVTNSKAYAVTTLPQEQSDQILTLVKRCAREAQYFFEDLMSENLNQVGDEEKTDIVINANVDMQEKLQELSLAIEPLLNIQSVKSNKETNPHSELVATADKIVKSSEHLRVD

[4] = target: T2, Sla2:270-350 (complete IDR of Sla2) (Saccharomyces cerevisiae, UniProt P33338 270-350); assay: MST
T2 sequence (looked up): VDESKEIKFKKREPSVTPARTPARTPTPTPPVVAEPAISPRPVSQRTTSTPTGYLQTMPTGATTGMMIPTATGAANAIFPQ

[5] = target: the molecule itself; assay: mass photometry
[6] = target: B4; assay: MST

Binder: B3
- binding result [3]: binds

Binder: B4
- Kd [4]: 0.9 µM

Binder: B5
- stoichiometry N [5]: 2

The next lines start with the values.

- KD of Site 1 (higher affinity site) [1]: ~0.1 µM
- KD of Site 2 (lower affinity site) [1]: 3 µM
B1: Sla2cc (Sla2 residues 296-767), WildType (domain or fragment, Saccharomyces cerevisiae, UniProt P33338 296-767, looked up)
chain: TPTPPVVAEPAISPRPVSQRTTSTPTGYLQTMPTGATTGMMIPTATGAANAIFPQATAQMQPDFWANQQAQFANEQNRLEQERVQQLQQQQAQQELFQQQLQKAQQDMMNMQLQQQNQHQNDLIALTNQYEKDQALLQQYDQRVQQLESEITTMDSTASKQLANKDEQLTALQDQLDVWERKYESLAKLYSQLRQEHLNLLPRFKKLQLKVNSAQESIQKKEQLEHKLKQKDLQMAELVKDRDRARLELERSINNAEADSAAATAAAETMTQDKMNPILDAILESGINTIQESVYNLDSPLSWSGPLTPPTFLLSLLESTSENATEFATSFNNLIVDGLAHGDQTEVIHCVSDFSTSMATLVTNSKAYAVTTLPQEQSDQILTLVKRCAREAQYFFEDLMSENLNQVGDEEKTDIVINANVDMQEKLQELSLAIEPLLNIQSVKSNKETNPHSELVATADKIVKSSEHLRVD
modifications: RED-NHS dye label (only in the MST against CLC:70-140 and Pan1:777-987)

- stoichiometry N [2]: 1 NusA-CLC per Sla2 dimer
B2: NusA conjugated to CLC (NusA-CLC) (natural protein, Saccharomyces cerevisiae, UniProt P17891 1-233, looked up)
chain: MSEKFPPLEDQNIDFTPNDKKDDDTDFLKREAEILGDEFKTEQDDILETEASPAKDDDEIRDFEEQFPDINSANGAVSSDQNGSATVSSGNDNGEADDDFSTFEGANQSTESVKEDRSEVVDQWKQRRAVEIHEKDLKDEELKKELQDEAIKHIDDFYDSYNKKKEQQLEDAAKEAEAFLKKRDEFFGQDNTTWDRALQLINQDDADIIGGRDRSKLKEILLRLKGNAKAPGA

- Kd [6]: 81.2 µM
B6: Sla2:283-297 peptide (peptide)
peptide: PVSTPARTPARTPTP
